From PMC3586674

Target: T1, ECudA (Entamoeba histolytica, UniProt Q24859 1-283)
T1 sequence: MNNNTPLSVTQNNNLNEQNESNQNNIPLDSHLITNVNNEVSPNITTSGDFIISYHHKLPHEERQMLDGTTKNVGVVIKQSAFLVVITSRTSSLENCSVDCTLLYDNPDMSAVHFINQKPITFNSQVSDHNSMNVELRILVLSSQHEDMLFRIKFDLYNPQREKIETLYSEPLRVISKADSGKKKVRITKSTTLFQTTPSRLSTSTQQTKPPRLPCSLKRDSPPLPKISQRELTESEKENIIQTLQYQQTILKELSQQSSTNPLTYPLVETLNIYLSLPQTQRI
Test: competition

B1: WT 20-mer (dsDNA)
DNA 1: CACTGTGAGAATTTTCTATT
DNA 2: AATAGAAAATTCTCACAGTG
B1: binds.
